From US7067474B1, “Agents for treating human illnesses based on β-catenin, and the production and use thereof” (Max-Delbruck-Centrum fur Molekulare Medizin, priority 1998, dated 2006)

How the values were obtained:
Assay in all cases: yeast 2-hybrid; - means 60-100% of the wild type interaction
[1] = biological target: T1, human β-catenin (Leu218-Leu781) mutant Trp 338 to alanine, Gal-4 activation domain fusion (human, UniProt P35222 218-781)
T1 sequence: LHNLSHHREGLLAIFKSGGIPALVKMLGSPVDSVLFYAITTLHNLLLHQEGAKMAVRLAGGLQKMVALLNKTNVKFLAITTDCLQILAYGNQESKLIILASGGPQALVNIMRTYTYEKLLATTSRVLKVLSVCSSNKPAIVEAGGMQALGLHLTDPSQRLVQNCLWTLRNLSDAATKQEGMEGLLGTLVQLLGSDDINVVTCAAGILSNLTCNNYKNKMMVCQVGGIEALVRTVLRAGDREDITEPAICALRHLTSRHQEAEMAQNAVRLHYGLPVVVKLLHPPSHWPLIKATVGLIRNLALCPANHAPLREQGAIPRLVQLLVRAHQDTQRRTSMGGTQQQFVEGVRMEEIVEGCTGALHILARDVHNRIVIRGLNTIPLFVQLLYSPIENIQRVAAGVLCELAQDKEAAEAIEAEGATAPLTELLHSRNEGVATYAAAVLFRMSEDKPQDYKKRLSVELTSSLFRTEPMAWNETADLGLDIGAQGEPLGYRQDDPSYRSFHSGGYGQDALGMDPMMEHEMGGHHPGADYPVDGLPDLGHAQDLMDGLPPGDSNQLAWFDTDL
Method: (§1) 4. Preparation and testing of mutants of β-catenin modulating the interaction with LEF-1, APC, conductin or E-cadherin The mutagenesis of β-catenin in the armadillo repeats 3–8 was carried out by means of the "mutagenesis kit" of the company Clontech according to the producer's record and the mutants were checked by sequencing (FIG. 5). In all mutants the original amino acid was substituted by alanine. For analyzing the interactions the cDNA of human β-catenin (armadillo repeat 3 up to the C-terminal end of the protein) coding for the amino acids Leu218–Leu7 µl or its mutants was cloned into the fusion vector for the activation domain of Gal-4 (pGAD424, Clontech). The cDNA for the binding domains of the interaction partners was cloned into the Lex-A fusion vector BTM 116. To this end, the cDNA of LEF-1 for the amino acids 1–99, conductin for the amino acids Ala342–ARG465; of human APC for the amino acids His1012–Glu1215 (APC 15 amino acid repeats) and for the amino acids Ser1259Asp 1400 (APC 20 amino acid repeats) and E-cadherin for the amino acids Gin773–Asp884 (cytoplasmatic domain) were amplified with the respective primers PCR. The interaction of the Lex-A hybrids with β-catenin and its mutants was quantified by means of the β-galactosidase reporter activity in the yeast 2-hybrid system (report: "Matchmaker". Clontech) (Tab. 2 and FIG. 6).

[2] = biological target: T2, human β-catenin (Leu218-Leu781) mutant Arg 457 to alanine, Gal-4 activation domain fusion (human, UniProt P35222 218-781)
T2 sequence: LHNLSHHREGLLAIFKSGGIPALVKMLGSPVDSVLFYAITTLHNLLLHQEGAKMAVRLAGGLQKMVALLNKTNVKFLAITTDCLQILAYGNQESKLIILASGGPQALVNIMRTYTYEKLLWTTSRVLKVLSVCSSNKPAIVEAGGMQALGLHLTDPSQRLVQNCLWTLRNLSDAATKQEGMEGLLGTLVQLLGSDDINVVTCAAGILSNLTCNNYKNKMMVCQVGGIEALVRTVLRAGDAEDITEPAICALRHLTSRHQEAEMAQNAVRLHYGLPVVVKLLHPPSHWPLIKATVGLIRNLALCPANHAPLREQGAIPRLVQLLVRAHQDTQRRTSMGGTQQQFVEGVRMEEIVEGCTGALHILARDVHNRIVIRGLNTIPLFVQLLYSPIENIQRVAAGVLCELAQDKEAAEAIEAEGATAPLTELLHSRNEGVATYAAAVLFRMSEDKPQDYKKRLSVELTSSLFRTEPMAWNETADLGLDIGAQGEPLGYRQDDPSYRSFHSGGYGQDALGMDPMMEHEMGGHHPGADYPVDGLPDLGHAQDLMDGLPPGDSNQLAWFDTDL
Method: as §1

[3] = biological target: T3, human β-catenin (Leu218-Leu781) mutant Arg 274 to alanine, Gal-4 activation domain fusion (human, UniProt P35222 218-781)
T3 sequence: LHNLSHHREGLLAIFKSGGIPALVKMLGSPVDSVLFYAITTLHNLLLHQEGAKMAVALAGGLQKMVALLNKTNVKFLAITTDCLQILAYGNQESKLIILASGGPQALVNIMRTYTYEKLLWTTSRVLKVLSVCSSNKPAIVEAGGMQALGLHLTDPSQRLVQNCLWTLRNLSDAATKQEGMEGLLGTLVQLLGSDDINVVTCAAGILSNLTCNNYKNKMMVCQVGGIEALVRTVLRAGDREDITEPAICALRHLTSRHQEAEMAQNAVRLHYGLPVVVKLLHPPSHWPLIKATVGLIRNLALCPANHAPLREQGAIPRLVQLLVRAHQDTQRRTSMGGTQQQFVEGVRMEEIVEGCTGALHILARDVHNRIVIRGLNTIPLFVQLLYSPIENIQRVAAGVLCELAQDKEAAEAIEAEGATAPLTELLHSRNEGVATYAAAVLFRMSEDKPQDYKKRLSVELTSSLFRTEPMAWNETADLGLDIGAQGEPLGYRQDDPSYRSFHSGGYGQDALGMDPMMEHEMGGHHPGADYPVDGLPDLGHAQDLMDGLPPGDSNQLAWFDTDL
Method: as §1

Measured: binding result

B1: LEF-1 amino acids 1-99 fused to Lex-A (vector BTM 116) (other, UniProt P0A7C2 1-202, looked up)
chain: MKALTARQQEVFDLIRDHISQTGMPPTRAEIAQRLGFRSPNAAEEHLKALARKGVIEIVSGASRGIRLLQEEEEGLPLVGRVAAGEPLLAQQHIEGHYQVDPSLFKPNADFLLRVSGMSMKDIGIMDGDLLAVHKTQDVRNGQVVVARIDDEVTVKRLKKQGNKVELLPENSEFKPIVVDLRQQSFTIEGLAVGVIRNGDWLMPQLSGGGGGGDPELCATDEMIPFKDEGDPQKEKIFAEISHPEEEGDLADIKSSLVNESEIIPASNGHEVVRQAPSSQEPYHDKAREHPDEGKHPDGGL
notes: Order of the fusion follows the vector; also called LEF-1/TCF-4
binds: all assays above
